Results from patent US6103514A, “Protease” (The University of Tokyo, priority 1997, dated 2000).

Tests used:
[1] = biological target: Suc-Ala-Pro-Phe-MCA
[2] = biological target: Suc-Leu-Leu-Val-Tyr-MCA
[3] = biological target: Pyr-Gly-Arg-MCA
[4] = biological target: Boc-Val-Leu-Lys-MCA
[5] = biological target: Suc-Ala-Ala-Pro-Phe-MCA
[6] = biological target: Z-Phe-Arg-MCA
[7] = biological target: Boc-Phe-Ser-Arg-MCA
[8] = biological target: Z-Arg-Arg-MCA
[9] = tested on: 26·29 kDa protease; details: stated under Prior Art; cited from earlier work
[10] = cited from earlier work
[11] = Assay of protease activity with fluorescent peptidyl-MCA substrates; assay type: biochemical; details: for Hydrolysis of Z-Arg-Arg-MCA (in words): substrate Z-Arg-Arg-MCA
Description: Table 2 lists specific activities of 26·29 kDa protease, cathepsin B from flesh fly and cathepsin L from flesh fly to various substrates, which were measured in terms of their hydrolytic activities against the fluorescence-attached synthetic substrates. The numeral represents the mass of fluorescent synthetic substrate hydrolyzed by a unit weight of protease, or a specific activity of that enzyme. For the numerals of Table, one unit of activity is defined as a weight of enzyme necessary for hydrolyzing 1 μmol of substrate in 10 minutes. "ND" in Table represents no result because the test not being made. Sequence listing numbers for sequences in Table 2 are: SEQ ID NO:100 and SEQ ID NO:101.
Assay of enzymatic activity was performed using 0.2 ml of 5 mM sodium phosphate (pH 6.0) containing 0.05 mM peptidyl-MCA substrate, 100 mM NaCl, 1 mM EDTA, 5 mM 2-mercaptoethanol, and 10 μl of the test fraction. The solution was incubated at 27° C. for 10 minutes, to which was added 0.2 ml of 20% aqueous solution of acetic acid to stop the reaction. Fluorescence at 380 nm and 460 nm was observed. The amount necessary for hydrolyzing 1 μmol substrate in 10 minutes under the above condition was defined as one unit of protease activity.
For purification of 26·29 kDa protease, carbobenzoxy-Arg-Arg-MCA was used as the substrate. Further, for determination of substrate specificity, various peptidyl-MCAs were used.

[12] = as above; assay type: biochemical; details: for Recovery of protease activity after treatment to restore activity: condition effective for recombinant human cathepsin L precursor, natural protease denatured first
[13] = substrate Suc-Ala-Ala-Pro-Phe-MCA
[14] = substrate Suc-Leu-Leu-Val-Tyr-MCA
[15] = substrate z-Arg-Arg-MCA, 1 unit hydrolyzes 1 μmol substrate in 10 minutes

In the case of “26·29 kDa protease of flesh fly (Sarcophaga peregrina), isolated and purified from body fluid cells (enzyme)”, the Activity (units/mg enzyme) (units/mg enzyme) [1] is reported as 0.01, the Activity (units/mg enzyme) (units/mg enzyme) [2] is reported as 0.03 and the Activity (units/mg enzyme) (units/mg enzyme) [3] is reported as 0.03. The Activity (units/mg enzyme) (units/mg enzyme) [4] was 0.61, the Activity (units/mg enzyme) (units/mg enzyme) [5] was 0.01 and the Activity (units/mg enzyme) (units/mg enzyme) [6] was 2.25. The Activity (units/mg enzyme) (units/mg enzyme) [7] was 0.15 and the Activity (units/mg enzyme) (units/mg enzyme) [8] was 4.29.

For `CC(C)C[C@H](NC(=O)[C@H]1O[C@@H]1C(=O)O)C(=O)NCCCCN=C(N)N` [E64], the “Inhibition of protease activity” value [9] is listed as “inhibited”.

In the case of cathepsin B from flesh fly (enzyme), the Activity (units/mg enzyme) (units/mg enzyme) [1] is reported as 0.83, the Activity (units/mg enzyme) (units/mg enzyme) [2] is reported as 18.7 and the Activity (units/mg enzyme) (units/mg enzyme) [3] is reported as 0.29. It also gave an Activity (units/mg enzyme) (units/mg enzyme) [5] of 0.5, an Activity (units/mg enzyme) (units/mg enzyme) [6] of 20.6 and an Activity (units/mg enzyme) (units/mg enzyme) [8] of 0.86.

For “cathepsin B: cathepsin B from flesh fly, comparison cysteine protease”, the “Hydrolysis of Suc-Leu-Leu-Val-Tyr-MCA (in words, literature)” value ([10]; substrate Suc-Leu-Leu-Val-Tyr-MCA, Kurata et al. 1992) is given as “hydrolyzes”, the “Hydrolysis of Z-Arg-Arg-MCA (in words, literature)” value ([10]; substrate Z-Arg-Arg-MCA, Takahashi et al. 1993) is given as “can not hydrolyze” and the “Activity (units/mg enzyme)” value ([11]; substrate Pyr-Gly-Arg-MCA) is given as 0.29 units/mg enzyme. The “Activity (units/mg enzyme)” value [11, 13] was 0.5 units/mg enzyme, the “Activity (units/mg enzyme)” value ([11]; substrate Suc-Ala-Pro-Phe-MCA) was 0.83 units/mg enzyme and the “Activity (units/mg enzyme)” value [11, 14] was 18.7 units/mg enzyme. For the same molecule, the “Hydrolysis of Z-Arg-Arg-MCA (in words)” value [11] was “scarcely hydrolyzes”, the “Activity (units/mg enzyme)” value [11, 15] was 0.86 units/mg enzyme and the “Activity (units/mg enzyme)” value ([11]; substrate z-Phe-Arg-MCA) was 20.6 units/mg enzyme.

In the case of cathepsin L from flesh fly (enzyme), the Activity (units/mg enzyme) (units/mg enzyme) [2] is reported as 0.04, the Activity (units/mg enzyme) (units/mg enzyme) [6] is reported as 180 and the Activity (units/mg enzyme) (units/mg enzyme) [8] is reported as 0.17.

For “cathepsin L: cathepsin L from flesh fly, comparison cysteine protease”, the “Activity (units/mg enzyme)” value [11, 14] was 0.04 units/mg enzyme, the “Hydrolysis of Z-Arg-Arg-MCA (in words)” value [11] was “practically does not hydrolyze” and the “Activity (units/mg enzyme)” value [11, 15] was 0.17 units/mg enzyme. For the same molecule, the “Activity (units/mg enzyme)” value ([11]; substrate z-Phe-Arg-MCA) was 180 units/mg enzyme.

B1: 26.multidot.29 kDa protease: bimolecular cysteine protease of 26 kDa and 29 kDa subunits, purified from body fluid cells of flesh fly (Sarcophaga peregrina) (protein)
chain 1: TNPPRWDPNYIVKGTLYIPYAEIAEPFYAWYDKNTRRSRIDYYGGMVKTYQLANEHPFGTSLKLAPITTKSELNKVTCLQLNGTSEDPVQVQAILPNAKDFKLIGTETFLGFNCDKFRLEETIGDKKNVYTLWVRYKKSPHYPASRMPIPVRYEMRGYNTLLGSHYDHYYLDYDSYDHDDIPNEVFELDDNMECMPFPGPGK
chain 2: NGGNLVRLSQQALIDCSWEYGNNGCDGGEDFRAYKWMMEMGGVPTEEEYGPYLGQDGYCHAKNVSLVAPITGFFNVTPNDPMALKIALLKHGPISVAIDASPKTFSFYSHGVYYEPTCKNGLDELDHAVLAVGYGTINGEDYWLVKNSWSTYWGNDGYILMSARKNNCGVMTMPTYVEM
In the case of B1, the “Activity (units/mg enzyme)” value ([11]; substrate Boc-Phe-Ser-Arg-MCA) is reported as 0.15 units/mg enzyme, the “Activity (units/mg enzyme)” value ([11]; substrate Boc-Val-Leu-Lys-MCA) is reported as 0.61 units/mg enzyme and the “Activity (units/mg enzyme)” value ([11]; substrate Pyr-Gly-Arg-MCA) is reported as 0.03 units/mg enzyme. The “Activity (units/mg enzyme)” value [11, 13] was 0.01 units/mg enzyme, the “Activity (units/mg enzyme)” value ([11]; substrate Suc-Ala-Pro-Phe-MCA) was 0.01 units/mg enzyme and the “Activity (units/mg enzyme)” value [11, 14] was 0.03 units/mg enzyme. For the same molecule, the “Hydrolysis of Z-Arg-Arg-MCA (in words)” value [11] was “well hydrolyzes”, the “Hydrolysis of Z-Phe-Arg-MCA (in words)” value ([11]; substrate Z-Phe-Arg-MCA) was “has also a hydrolyzing activity” and the “Activity (units/mg enzyme)” value [11, 15] was 4.29 units/mg enzyme. For the same molecule, the “Activity (units/mg enzyme)” value ([11]; substrate z-Phe-Arg-MCA) was 2.25 units/mg enzyme and the “Recovery of protease activity after treatment to restore activity” value [12] was “no positive effects”.

B2: recombinant homologue of 29 kDa subunit: recombinant protein of 29 kDa subunit expressed in E. coli, recovered as inclusion bodies (protein)
chain: B1 chain 2
In the case of B2, the “Recovery of protease activity after treatment to restore activity” value [12] is reported as “could not recover its activity” and the “Protease activity towards Z-Arg-Arg-MCA of recombinant protein expressed in E. coli” value ([12]; homogenate or inclusion bodies from expressing E. coli cells) is reported as “only as much as the control E. coli cells”.
